From IntAct's records for PubMed 22187461 come the findings set out here.

B1: 26S proteasome non-ATPase regulatory subunit 11 (Drosophila melanogaster (Fruit fly)), Q7KLV9-1 (parent)
chain: MAGATLFERAQALSSVNREEQDSSLLNKLVRDQEGAENDEERIRIKEQGILQQGELYKQEGKAKELADLIKVTRPFLSSISKAKAAKLVRSLVDMFLDMDAGTGIEVQLCKDCIEWAKQEKRTFLRQSLEARLIALYFDTALYTEALALGAQLLRELKKLDDKNLLVEVQLLESKTYHALSNLPKARAALTSARTTANAIYCPPKVQGALDLQSGILHAADERDFKTAFSYFYEAFEGFDSVDSVKALTSLKYMLLCKIMLGQSDDVNQLVSGKLAITYSGRDIDAMKSVAEASHKRSLADFQAALKEYKKELAEDVIVQAHLGTLYDTMLEQNLCRIIEPYSRVQVAHVAESIQLPMPQVEKKLSQMILDKKFSGILDQGEGVLIVFEETPVDKTYERVLETIQSMGKVVDTLYQKAKKLS
partner: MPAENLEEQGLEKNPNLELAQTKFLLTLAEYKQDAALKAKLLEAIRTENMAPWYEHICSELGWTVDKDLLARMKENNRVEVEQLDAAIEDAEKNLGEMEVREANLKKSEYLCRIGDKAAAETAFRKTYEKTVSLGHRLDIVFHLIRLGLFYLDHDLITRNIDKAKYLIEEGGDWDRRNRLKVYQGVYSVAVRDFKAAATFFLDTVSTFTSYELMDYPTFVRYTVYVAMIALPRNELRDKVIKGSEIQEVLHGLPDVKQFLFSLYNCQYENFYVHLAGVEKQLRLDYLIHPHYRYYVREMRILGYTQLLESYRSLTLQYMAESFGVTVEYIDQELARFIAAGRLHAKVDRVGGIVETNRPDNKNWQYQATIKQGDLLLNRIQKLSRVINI

In this experiment the parent is B1. Particulars: with psmd6_drome Rpn7, Q9V3G7.
Turning to S366K;I369A;L370A, the “effect of a mutation on the interaction” value is reported as “disrupting interaction strength”.
